1 molecule from patent US20250136688A1 (Janssen / Centocor, published 2025) can be followed below.

The target of test [1] is T1, cynomolgus monkey CD3 (cynomolgus monkey, UniProt Q95LI5 22-198).
T1 construct: whole, on cells; also called cyno CD3; NHP CD3
In words: not described.

The target of test [2] is T2, human GUCY2C (human, UniProt P25092 24-1073). In words: cell-based or functional assay.
For test [3], the target named is T2, human GUCY2C. Kind of test: flow cytometry on T84 cells, 1 hour at 37 °C.
Test [4] concerns the target T3, Human CD3 epsilon (human, UniProt P07766 23-207).
T3 construct: Stood on human T cells (pan-T cells, isolated donor T cells) as part of the TCR/CD3 complex; the other chains of the complex are not written here; also called CD3ε; CD3R
In words: flow cytometry on primary T cells, 1 hour at 37 °C.

T2 sequence (P25092 24-1073): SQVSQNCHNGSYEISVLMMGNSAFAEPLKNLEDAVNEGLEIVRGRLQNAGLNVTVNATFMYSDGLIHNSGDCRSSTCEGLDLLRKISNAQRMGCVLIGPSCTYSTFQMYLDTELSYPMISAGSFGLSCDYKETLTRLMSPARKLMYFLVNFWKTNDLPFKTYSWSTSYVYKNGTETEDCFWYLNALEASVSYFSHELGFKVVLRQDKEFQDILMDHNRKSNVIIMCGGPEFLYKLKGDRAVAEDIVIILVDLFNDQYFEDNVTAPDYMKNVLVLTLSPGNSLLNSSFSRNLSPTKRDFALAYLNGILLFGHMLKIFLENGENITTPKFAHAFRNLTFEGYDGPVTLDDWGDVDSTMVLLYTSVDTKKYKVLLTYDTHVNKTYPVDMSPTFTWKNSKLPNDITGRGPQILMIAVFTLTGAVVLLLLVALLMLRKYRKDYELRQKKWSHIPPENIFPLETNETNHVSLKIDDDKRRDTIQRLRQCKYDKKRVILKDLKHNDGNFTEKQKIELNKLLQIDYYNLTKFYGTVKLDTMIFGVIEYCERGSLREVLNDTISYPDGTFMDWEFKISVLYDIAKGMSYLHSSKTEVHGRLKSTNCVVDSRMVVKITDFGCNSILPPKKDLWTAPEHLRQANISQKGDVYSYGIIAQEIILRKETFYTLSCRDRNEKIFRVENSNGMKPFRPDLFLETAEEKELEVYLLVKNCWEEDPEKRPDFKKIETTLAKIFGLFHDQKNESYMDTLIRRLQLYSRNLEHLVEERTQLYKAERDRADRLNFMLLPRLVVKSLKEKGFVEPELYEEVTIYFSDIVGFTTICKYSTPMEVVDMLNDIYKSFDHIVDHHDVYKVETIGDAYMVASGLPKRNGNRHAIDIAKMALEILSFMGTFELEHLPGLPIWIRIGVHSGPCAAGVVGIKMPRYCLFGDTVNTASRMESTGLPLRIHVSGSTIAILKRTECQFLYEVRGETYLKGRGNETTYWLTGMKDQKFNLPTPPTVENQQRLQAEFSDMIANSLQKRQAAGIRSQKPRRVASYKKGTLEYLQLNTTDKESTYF
T1 sequence (Q95LI5 22-198): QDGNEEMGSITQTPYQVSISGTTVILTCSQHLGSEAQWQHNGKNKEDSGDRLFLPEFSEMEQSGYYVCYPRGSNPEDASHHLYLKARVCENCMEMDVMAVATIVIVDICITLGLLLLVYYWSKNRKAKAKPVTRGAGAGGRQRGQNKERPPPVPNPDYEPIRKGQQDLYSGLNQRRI
T3 sequence (P07766 23-207 limits assumed): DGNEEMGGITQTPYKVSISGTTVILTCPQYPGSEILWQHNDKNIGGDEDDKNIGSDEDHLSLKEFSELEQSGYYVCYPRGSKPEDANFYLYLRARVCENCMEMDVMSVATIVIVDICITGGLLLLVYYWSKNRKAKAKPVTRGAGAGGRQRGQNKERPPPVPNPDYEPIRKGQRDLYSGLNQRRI

B1: GUCY2C×CD3_biAb-1 (bispecific antibody, human IgG1, kappa, L234A L235A)
heavy: QVQLQESGPGLVKPSETLSLTCTVSGASISHYYWSWIRRPAGKGLEWIGRIYTSGSTNYNPSLKSRVTVSVDTSKNQFSLKLSSVTAADTAVYYCARDRYTGYFDLWGRGTLVTVSSASTKGPSVFPLAPSSKSTSGGTAALGCLVKDYFPEPVTVSWNSGALTSGVHTFPAVLQSSGLYSLSSVVTVPSSSLGTQTYICNVNHKPSNTKVDKKVEPKSCDKTHTCPPCPAPEAAGGPSVFLFPPKPKDTLMISRTPEVTCVVVSVSHEDPEVKFNWYVDGVEVHNAKTKPREEQYNSTYRVVSVLTVLHQDWLNGKEYKCKVSNKALPAPIEKTISKAKGQPREPQVYTLPPSREEMTKNQVSLSCAVKGFYPSDIAVEWESNGQPENNYKTTPPVLDSDGSFFLVSKLTVDKSRWQQGNVFSCSVMHEALHNRFTQKSLSLSPGK
light: not shown
chain: EIVLTQSPATLSASPGERVTLSCSASSSVSYMNWYQQKPGCAPRRWIYDSSKLASGVPARFSGSGSGRDYTLTISSLEPEDFAVYYCQQWSRNPPTFGGGTKVEIKGGGSGGSGGCPPCGGSGGQVQLVQSGAEVKKPGSSVKVSCKASGYTFTRSTMHWVKQAPGQGLEWIGYINPSSAYTNYNQKFQGRVTLTADKSTSTAYMELSSLRSEDTAVYYCASPQVHYDYAGFPYWGCGTLVTVSSEPKSSDKTHTCPPCPAPEAAGGPSVFLFPPKPKDTLMISRTPEVTCVVVSVSHEDPEVKFNWYVDGVEVHNAKTKPREEQYNSTYRVVSVLTVLHQDWLNGKEYKCKVSNKALPAPIEKTISKAKGQPREPQVYTLPPSREEMTKNQVSLWCLVKGFYPSDIAVEWESNGQPENNYKTTPPVLDSDGSFFLYSKLTVDKSRWQQGNVFSCSVMHEALHNHYTQKSLSLSPGK
notes: HC2 = CD3_spFv-1-Fc (knob); IgG1 with L234A/L235A/D265S; also called GUCY2CxCD3 bisp-Ab1; GUCY2C-CD3-bisp-Ab1
In the case of B1, the binding result in test [1] is “no binding”. In addition, in test [2], the “Tumor killing EC50 (nM), HT-55” value was 0.8 nM and the “Tumor killing EC50 (nM), LS1034” value amounted to 0.04 nM. For the same molecule, in test [3], the concentration for a half-maximal effect (EC50) is 12 nM. The same molecule returned an EC50 in test [4] of 108 nM.
